Measurements taken from the supplement of paper PMC7125110.
± gives the standard error. For part of these data: Fewer inactive variants are shown than the library holds.

B1: glmS ribozyme (parent)
chain: AUAAAAGCGCCAGAACUACAGAAAUGUAGUUGACGAGGAGGAGGUUUAUCGAAUUUUCGGCGGAUGCCUCCAAA

Tests used:
Conditions in all cases: with glucosamine-6-phosphate
glucosamine-6-phosphate [1] = variants of: B1; assay: kcat; higher = faster cleavage; RNA array
Procedure, shortened: (§1)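 Barcoded ribozyme variants, transcribed in situ by E. coli RNA polymerase on sequenced MiSeq chips, were followed via a hybridised Cy3 probe at 37 °C. Glucosamine-6-phosphate ranged from 40 μM to 10 mM in HEPES/KCl/Mg(OAc)2 buffer. kobs came from decay fits to per-tile medians, and kcat and KM from weighted Michaelis–Menten fits.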

glucosamine-6-phosphate [2] = variants of: B1; assay: KM; higher = weaker cofactor use; RNA array
Procedure, shortened: as §1

glucosamine-6-phosphate [3] = variants of: B1; assay: self-cleavage kobs at 40 uM GlcN6P; higher = faster cleavage; RNA array
Procedure, shortened: as §1

glucosamine-6-phosphate [4] = variants of: B1; assay: self-cleavage kobs at 160 uM GlcN6P; higher = faster cleavage; RNA array
Procedure, shortened: as §1

glucosamine-6-phosphate [5] = variants of: B1; assay: self-cleavage kobs at 640 uM GlcN6P; higher = faster cleavage; RNA array
Procedure, shortened: as §1

glucosamine-6-phosphate [6] = variants of: B1; assay: self-cleavage kobs at 2500 uM GlcN6P; higher = faster cleavage; RNA array
Procedure, shortened: as §1

glucosamine-6-phosphate [7] = variants of: B1; assay: self-cleavage kobs at 10000 uM GlcN6P; higher = faster cleavage; RNA array
Procedure, shortened: as §1

Row | Variant | kcat (glucosamine-6-phosphate [1]) | KM (glucosamine-6-phosphate [2]) | self-cleavage kobs at 40 uM GlcN6P (glucosamine-6-phosphate [3]) | self-cleavage kobs at 160 uM GlcN6P (glucosamine-6-phosphate [4]) | self-cleavage kobs at 640 uM GlcN6P (glucosamine-6-phosphate [5]) | self-cleavage kobs at 2500 uM GlcN6P (glucosamine-6-phosphate [6]) | self-cleavage kobs at 10000 uM GlcN6P (glucosamine-6-phosphate [7])
1 | A53G U55A | 0.0853 ± 0.029 s⁻¹ | 3.48 ± 1.4 mM | 0.00112 ± 0.00013 s⁻¹ | 0.00332 ± 0.00069 s⁻¹ | 0.0112 ± 0.002 s⁻¹ | 0.0611 ± 0.023 s⁻¹ | 0.065 ± 0.014 s⁻¹
2 | A53G U55G | 0.0437 ± 0.021 s⁻¹ | – | 0.0007 ± 8.8e-05 s⁻¹ | 0.00323 ± 0.0008 s⁻¹ | 0.00936 ± 0.0021 s⁻¹ | 0.0152 ± 0.0045 s⁻¹ | 0.0622 ± 0.015 s⁻¹
3 | A53C U57G | 0.000348 ± 0.00012 s⁻¹ | – | – | – | 9.98e-05 ± 1.6e-05 s⁻¹ | 0.000143 ± 1.9e-05 s⁻¹ | 0.000339 ± 4.6e-05 s⁻¹
4 | A53C C68U | 9.65e-05 ± 7.1e-06 s⁻¹ | 0.858 ± 0.31 mM | – | – | 3.67e-05 ± 7.7e-06 s⁻¹ | 8.77e-05 ± 1e-05 s⁻¹ | 8.67e-05 ± 5.3e-06 s⁻¹
5 | U56A G60A | 2.59e-05 ± 2.9e-06 s⁻¹ | – | – | – | – | – | 2.33e-05 ± 1.2e-05 s⁻¹
6 | U57A G59A | 1.13e-05 ± 3e-06 s⁻¹ | – | – | – | < 1e-05 s⁻¹ | – | –
7 | U55A G59U | 1.92e-05 ± 2.2e-06 s⁻¹ | – | – | – | – | < 1e-05 s⁻¹ | –
8 | A53U U65C | 0.000266 ± 3.1e-05 s⁻¹ | 1.37 ± 0.31 mM | – | – | 8.76e-05 ± 1.6e-05 s⁻¹ | 0.000196 ± 5.3e-05 s⁻¹ | 0.000222 ± 4.6e-05 s⁻¹
9 | A53U U65G | 0.00461 ± 0.00078 s⁻¹ | 4.56 ± 1.2 mM | 3.59e-05 ± 7e-06 s⁻¹ | 0.000238 ± 5.5e-05 s⁻¹ | 0.000611 ± 0.00011 s⁻¹ | 0.00152 ± 0.0002 s⁻¹ | 0.00323 ± 0.00034 s⁻¹
10 | U55C C58G | 0.000215 ± 1.3e-05 s⁻¹ | – | – | – | – | 3.85e-05 ± 1.1e-05 s⁻¹ | 9.91e-05 ± 1.2e-05 s⁻¹
11 | U56C C67A | 4.27e-05 ± 1.5e-06 s⁻¹ | 0.701 ± 0.18 mM | – | – | – | 3.57e-05 ± 1.4e-05 s⁻¹ | 3.95e-05 ± 7.5e-06 s⁻¹
12 | U56C C67U | 3.78e-05 ± 8.1e-07 s⁻¹ | 7.87 ± 0.36 mM | < 1e-05 s⁻¹ | < 1e-05 s⁻¹ | – | – | –
13 | A53U G63C | < 1e-05 s⁻¹ | – | – | – | – | – | –
14 | U54A C58G | 0.000169 ± 2.8e-05 s⁻¹ | 3.66 ± 1.7 mM | < 1e-05 s⁻¹ | – | – | 7.4e-05 ± 2.3e-05 s⁻¹ | 0.000123 ± 2.1e-05 s⁻¹
15 | U54A C58A | 0.000802 ± 0.00016 s⁻¹ | 5.45 ± 1.7 mM | – | 2.83e-05 ± 1.3e-05 s⁻¹ | 9.65e-05 ± 1.3e-05 s⁻¹ | 0.000217 ± 2.9e-05 s⁻¹ | 0.000547 ± 5.7e-05 s⁻¹
16 | U55G C67A | 0.000773 ± 0.00021 s⁻¹ | – | 0.000267 ± 4.8e-05 s⁻¹ | 0.000394 ± 8.8e-05 s⁻¹ | 0.000772 ± 0.00013 s⁻¹ | – | –
17 | U55G A64C | 0.000152 ± 1.4e-05 s⁻¹ | 1.21 ± 0.35 mM | – | – | 5.93e-05 ± 1.7e-05 s⁻¹ | 9.39e-05 ± 1.5e-05 s⁻¹ | 0.000143 ± 2e-05 s⁻¹
